Kd, koff and kon data for 2 substances are collected here from paper PMC2965030.

The target in experiment [1] is Glu-plasminogen (Homo sapiens) (UniProt P00747). As to conditions: cited from earlier work.
The target of experiment [2] is β2-glycoprotein I (human) (UniProt P02749). In words: optical biosensor.

pKd: −log10 of the molar value.

Sequence of β2-glycoprotein I (human) (P02749 20-345): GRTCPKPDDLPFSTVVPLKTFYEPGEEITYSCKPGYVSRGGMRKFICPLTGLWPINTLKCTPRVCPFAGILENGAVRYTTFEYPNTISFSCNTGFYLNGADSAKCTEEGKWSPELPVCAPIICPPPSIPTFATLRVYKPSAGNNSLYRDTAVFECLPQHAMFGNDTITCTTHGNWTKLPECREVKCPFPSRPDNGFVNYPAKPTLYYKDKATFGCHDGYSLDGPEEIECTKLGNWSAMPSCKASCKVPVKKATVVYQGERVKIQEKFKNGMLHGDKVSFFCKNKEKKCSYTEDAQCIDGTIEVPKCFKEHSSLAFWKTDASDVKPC
Sequence of Glu-plasminogen (Homo sapiens) (P00747 20-810): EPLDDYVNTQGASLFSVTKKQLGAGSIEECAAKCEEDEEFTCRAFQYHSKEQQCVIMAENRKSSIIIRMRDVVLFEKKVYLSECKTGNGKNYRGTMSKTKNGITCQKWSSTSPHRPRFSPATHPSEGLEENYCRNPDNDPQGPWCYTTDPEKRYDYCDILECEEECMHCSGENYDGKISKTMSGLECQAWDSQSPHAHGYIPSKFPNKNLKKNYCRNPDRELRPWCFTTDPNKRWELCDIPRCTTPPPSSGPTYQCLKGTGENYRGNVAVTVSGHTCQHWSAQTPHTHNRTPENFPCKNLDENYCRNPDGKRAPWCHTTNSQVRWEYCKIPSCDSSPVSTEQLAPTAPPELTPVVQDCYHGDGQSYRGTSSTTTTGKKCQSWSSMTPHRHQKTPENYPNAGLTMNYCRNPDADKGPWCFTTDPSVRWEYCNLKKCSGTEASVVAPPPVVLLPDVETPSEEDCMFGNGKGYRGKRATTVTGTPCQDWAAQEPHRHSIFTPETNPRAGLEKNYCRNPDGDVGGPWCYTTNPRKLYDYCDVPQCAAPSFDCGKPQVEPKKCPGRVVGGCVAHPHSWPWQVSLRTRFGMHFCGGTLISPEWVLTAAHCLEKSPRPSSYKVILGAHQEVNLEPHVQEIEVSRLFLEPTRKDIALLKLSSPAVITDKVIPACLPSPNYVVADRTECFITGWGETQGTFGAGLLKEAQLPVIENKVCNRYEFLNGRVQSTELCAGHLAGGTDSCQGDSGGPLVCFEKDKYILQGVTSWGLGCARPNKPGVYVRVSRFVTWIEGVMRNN
Sequence of β2-glycoprotein I (nicked) (P02749 20-345): as the sequence (P02749 20-345) above

The pKd is the Kd on a negative log10 scale, so that one unit is a factor of ten. Regarding “β2-glycoprotein I (nicked) (from UniProt P02749)”, the pKd in experiment [1] is 6.43.
The koff is a measure of how fast the partners let go of each other. A high value points to fast dissociation. A word on the kon: it is a measure of how fast the partners come together. Read a low kon as slower complex formation. In experiment [2], “tissue-type plasminogen activator (enzyme)” gave a koff of 0.00619 s⁻¹ and a kon of 113000 M⁻¹ s⁻¹.
